Experimental data taken from US20250163117A1 (CURE GENETICS, published 2025).
Where a chain is given by its changes, count along the chain named. Read-outs that look alike come from different tables or passages of the source.

T1: human intermediate-affinity IL-2 receptor IL-2Rβγ on cells (human, UniProt P14784 27-551; P31785 23-369)
T1 sequence (looked up) 1: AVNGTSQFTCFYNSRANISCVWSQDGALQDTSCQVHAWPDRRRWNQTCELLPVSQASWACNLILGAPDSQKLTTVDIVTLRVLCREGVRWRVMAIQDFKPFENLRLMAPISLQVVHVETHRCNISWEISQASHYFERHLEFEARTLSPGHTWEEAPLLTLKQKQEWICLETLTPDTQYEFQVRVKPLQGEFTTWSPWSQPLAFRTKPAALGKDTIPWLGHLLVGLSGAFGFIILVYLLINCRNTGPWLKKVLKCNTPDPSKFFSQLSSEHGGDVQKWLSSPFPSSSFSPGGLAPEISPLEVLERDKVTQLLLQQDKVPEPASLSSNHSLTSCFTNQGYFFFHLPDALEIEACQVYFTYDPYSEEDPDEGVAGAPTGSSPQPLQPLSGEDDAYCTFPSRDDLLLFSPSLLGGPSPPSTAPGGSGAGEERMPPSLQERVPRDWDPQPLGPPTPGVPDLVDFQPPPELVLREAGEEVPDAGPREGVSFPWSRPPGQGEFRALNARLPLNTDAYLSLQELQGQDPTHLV
T1 sequence (looked up) 2: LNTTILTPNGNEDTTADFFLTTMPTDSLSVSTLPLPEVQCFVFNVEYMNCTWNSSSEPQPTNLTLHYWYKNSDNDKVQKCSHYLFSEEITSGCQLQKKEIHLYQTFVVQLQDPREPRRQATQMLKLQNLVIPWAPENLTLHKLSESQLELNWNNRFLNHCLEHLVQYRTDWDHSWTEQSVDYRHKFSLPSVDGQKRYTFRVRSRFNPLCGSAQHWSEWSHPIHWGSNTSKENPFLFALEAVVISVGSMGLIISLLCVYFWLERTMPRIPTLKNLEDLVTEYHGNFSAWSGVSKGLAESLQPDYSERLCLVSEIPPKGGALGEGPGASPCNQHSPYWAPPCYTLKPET

T2: human high-affinity IL-2 receptor IL-2Rαβγ on cells (human, UniProt P01589 22-272; P14784 27-551; P31785 23-369)
T2 sequence (looked up) 1: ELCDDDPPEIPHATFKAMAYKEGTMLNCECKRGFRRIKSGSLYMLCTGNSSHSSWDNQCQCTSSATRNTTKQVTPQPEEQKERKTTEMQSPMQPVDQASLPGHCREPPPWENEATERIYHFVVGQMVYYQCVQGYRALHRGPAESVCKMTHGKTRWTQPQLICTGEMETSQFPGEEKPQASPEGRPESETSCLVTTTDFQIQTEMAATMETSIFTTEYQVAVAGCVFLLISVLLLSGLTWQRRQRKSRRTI
T2 sequence (looked up) 2: T1 sequence (looked up) 1
T2 sequence (looked up) 3: T1 sequence (looked up) 2

T3: mouse intermediate-affinity IL-2 receptor IL-2Rβγ on cells (mouse, UniProt P16297 27-539; P34902 23-369)
T3 sequence (looked up) 1: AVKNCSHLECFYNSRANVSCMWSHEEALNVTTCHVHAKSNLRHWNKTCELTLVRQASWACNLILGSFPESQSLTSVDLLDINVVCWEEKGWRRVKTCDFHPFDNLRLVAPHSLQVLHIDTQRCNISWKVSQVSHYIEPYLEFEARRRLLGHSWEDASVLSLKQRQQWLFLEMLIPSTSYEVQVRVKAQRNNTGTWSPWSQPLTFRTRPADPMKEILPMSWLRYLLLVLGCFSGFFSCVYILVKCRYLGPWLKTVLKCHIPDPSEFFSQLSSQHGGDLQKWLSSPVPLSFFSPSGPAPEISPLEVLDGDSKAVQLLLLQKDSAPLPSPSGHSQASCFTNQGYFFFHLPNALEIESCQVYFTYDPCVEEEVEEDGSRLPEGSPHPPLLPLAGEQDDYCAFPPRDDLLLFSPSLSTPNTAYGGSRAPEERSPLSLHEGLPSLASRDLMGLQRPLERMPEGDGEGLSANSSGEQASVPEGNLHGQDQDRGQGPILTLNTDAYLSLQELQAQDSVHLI
T3 sequence (looked up) 2: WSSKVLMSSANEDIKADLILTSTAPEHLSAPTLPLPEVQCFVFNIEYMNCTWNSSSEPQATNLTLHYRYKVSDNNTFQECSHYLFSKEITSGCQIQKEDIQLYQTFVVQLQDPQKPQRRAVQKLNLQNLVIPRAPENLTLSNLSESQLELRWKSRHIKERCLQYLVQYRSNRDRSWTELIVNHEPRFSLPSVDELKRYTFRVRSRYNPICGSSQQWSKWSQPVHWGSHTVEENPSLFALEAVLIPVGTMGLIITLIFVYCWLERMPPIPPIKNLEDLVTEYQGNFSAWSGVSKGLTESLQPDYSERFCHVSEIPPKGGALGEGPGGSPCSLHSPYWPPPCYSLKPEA

T4: mouse high-affinity IL-2 receptor IL-2Rαβγ on cells (mouse, UniProt P01590 22-268; P16297 27-539; P34902 23-369)
T4 sequence (looked up) 1: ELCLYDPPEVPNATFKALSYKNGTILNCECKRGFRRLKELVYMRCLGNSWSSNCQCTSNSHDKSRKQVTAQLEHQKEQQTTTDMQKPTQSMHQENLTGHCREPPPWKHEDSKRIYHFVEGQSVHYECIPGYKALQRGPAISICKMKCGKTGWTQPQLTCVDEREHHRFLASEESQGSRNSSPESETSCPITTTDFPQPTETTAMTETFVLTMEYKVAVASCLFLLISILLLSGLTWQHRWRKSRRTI
T4 sequence (looked up) 2: T3 sequence (looked up) 1
T4 sequence (looked up) 3: T3 sequence (looked up) 2

B1: CP-trIL-2 072 (ligand)
chain: ELKHLQSLEEELKDLEEVLNLAQSKNFHLRPRDLISNINVIVLELKGSETTPTSSSTKKTQLQLEHLLLDLQMILNGINNYKNPTIVEFLNRWITFSQSIISTLT
B2: CP-trIL-2 051 (ligand)
chain: PTSSSTKKTQLQLEHLLLDLQMILNGINNYKNPTIVEFLNRWITFSQSIISTLTGGGGSGGGGSELKHLQSLEEELKPLEEVLNLAQSKNFHLRPRDLISNINVIVLELKG
B3: CP-trIL-2 062 (ligand)
chain: TIVEFLNRWITFSQSIISTLTGGGGSGGGGSELKHLQSLEEELKDLEEVLNLAQSKNFHLRPRDLISNINVIVLELKGSETTPTSSSTKKTQLQLEHLLLDLQMILNGIN
B4: CP-trIL-2 082 (ligand)
chain: LRPRDLISNINVIVLELKGSETTPTSSSTKKTQLQLEHLLLDLQMILNGINNYKNPTIVEFLNRWITFSQSIISTLTGGGGSGGGGSELKHLQSLEEELKDLEEVLN
B5: CP-trIL-2 021 (ligand)
chain: LRPRDLISNINVIVLELKGSETTELKHLQSLEEELKPLEEVLNLAQSKNFHTIVEFLNRWITFSQSIISTLTGGGGSGGGGSPTSSSTKKTQLQLEHLLLDLQMILNGIN
B6: CP-trIL-2 022 (ligand)
chain: B5 chain with P37D
B7: CP-trIL-2 073 (ligand)
chain: B1 chain with F89K, F96K
B8: CP-trIL-2 011 (ligand)
chain: PTSSSTKKTQLQLEHLLLDLQMILNGINNYKNPLRPRDLISNINVIVLELKGSETTELKHLQSLEEELKPLEEVLNLAQSKNFHTIVEFLNRWITFSQSIISTLT
B9: CP-trIL-2 032 (ligand)
chain: ELKHLQSLEEELKDLEEVLNLAQSKNFHTIVEFLNRWITFSQSIISTLTGGGGSGGGGSPTSSSTKKTQLQLEHLLLDLQMILNGINNYKNPLRPRDLISNINVIVLELKG
B10: CP-trIL-2 042 (ligand)
chain: TIVEFLNRWITFSQSIISTLTGGGGSGGGGSPTSSSTKKTQLQLEHLLLDLQMILNGINNYKNPLRPRDLISNINVIVLELKGSETTELKHLQSLEEELKDLEEVLN

Tests used:
Test in all cases: cell-based or functional assay
[1] = target: T1, human intermediate-affinity IL-2 …
[2] = target: T1, human intermediate-affinity IL-2 …; remark: listed apart in the source
[3] = target: T2, human high-affinity IL-2 receptor …
[4] = target: T3, mouse intermediate-affinity IL-2 …
[5] = target: T4, mouse high-affinity IL-2 receptor …
[6] = target: T3, mouse intermediate-affinity IL-2 …; remark: listed apart in the source
[7] = target: T1, human intermediate-affinity IL-2 …; remark: listed apart in the source
[8] = target: T4, mouse high-affinity IL-2 receptor …; remark: listed apart in the source
[9] = target: T2, human high-affinity IL-2 receptor …; remark: listed apart in the source
[10] = target: T1, human intermediate-affinity IL-2 …; remark: listed apart in the source

Row | Binder | % pSTAT5 in human PBMC at High IL-2v concentration (25 nM per paragraph 254); western blot, pSTAT5/STAT5 normalised to 001 High [2] | % pSTAT5 in human PBMC at Low IL-2v concentration (2.5 nM per paragraph 254); western blot, pSTAT5/STAT5 normalised to 001 High [3] | % pSTAT5 in mouse splenocytes at High IL-2v concentration (25 nM per paragraph 254); western blot, pSTAT5/STAT5 normalised to 001 High [4] | % pSTAT5 in mouse splenocytes at Low IL-2v concentration (2.5 nM per paragraph 254); western blot, pSTAT5/STAT5 normalised to 001 High [5] | EC50 (read off the curve): STAT5 phosphorylation in HH cells [10] | also measured
1 | B1 | 41.4% | 6.5% | 91.3% | 30.7% |  | EC50 (read off the curve): STAT5 phosphorylation in HH cells [1]: ~20 nM; EC50 of STAT5 activation, mouse CD8 T cells (flow cytometry) [6]: 110 nM; EC50 of STAT5 activation, mouse NK cells (flow cytometry) [6]: 113 nM; EC50 of STAT5 activation, human CD8 T cells (flow cytometry) [7]: 45.7 nM; EC50 of STAT5 activation, human NK cells (flow cytometry) [7]: 15.6 nM; EC50 of STAT5 activation, mouse Tregs (flow cytometry) [8]: 129 nM; EC50 of STAT5 activation, human Tregs (flow cytometry) [9]: 22 nM
2 | B2 | 18.2% | 9.5% | 21.8% | 14.6% |  | 
3 | B3 | 12.1% | 10.7% | 20.5% | 13.8% |  | 
4 | B4 | 45.8% | 15.6% | 25.2% | 16.7% |  | 
5 | B5 |  |  |  |  | ~30 nM | 
6 | B6 | 38.1% | 9.1% | 68.5% | 24.8% | ~20 nM | 
7 | B7 |  |  |  |  |  | EC50 (read off the curve): STAT5 phosphorylation in HH cells [1]: ~10 nM
8 | B8 |  |  |  |  | ~6 nM | 
9 | B9 | 7.6% | 10.4% | 18.9% | 11.5% |  | 
10 | B10 | 9.3% | 6.2% | 16.1% | 13.9% |  | 
